Among the data in the RNAGym collection of RNA variant scans (doi:10.7554/elife.80360) are self-cleavage values, retold here.

Sequences and labels used below:
B1: Hairpin Ribozyme (parent)
chain: GUCCUCUUUCACGUGCGCGUGAAAGAGAGAAGUGAACCAGAGAAACACACGUUGUGGUAUAUUACCUGGUA

The data set covers variants of B1. The experiment in a line: self-cleavage, relative activity (ratio to wild type); higher = more cleavage; co-transcriptional.
Consider GUCCUCUUUCACGUGCGCGUGAAAGAGAGAAGUGAACCAGAGAAACACACGUUGUAGUAAAUUACCUGGUA [G56A U60A], for which the self-cleavage worked out at 0.121. In the case of GUCCUCUUUCACGUGCGCGUGAAAGAGAGAAGUGAACCAGAGAAACACACGUUGUAGUACAUUACCUGGUA [G56A U60C] it was 0.219; in that of GUCCUCUUUCACGUGCGCGUGAAAGAGAGAAGUGAACCAGAGAAACACACGUUGUAGUAUAAUACCUGGUA [G56A U62A], 0.182. In the case of GUCCUCUUUCACGUGCGCGUGAAAGAGAGAAGUGAACCAGAGAAACACACGUUGUAGUAUACUACCUGGUA [G56A U62C] it was 0.141; in that of GUCCUCUUUCACGUGCGCGUGAAAGAGAGAAGUGAACCAGAGAAACACACGUUGUAGUAUAUUACCUGGUA [G56A], 0.174.

With GUCCUCUUUCACGUGCGCGUGAAAGAGAGAAGUGAACCAGAGAAACACACGUUGUCGUAUAUUACCUGGUA [G56C], the self-cleavage worked out at 0.156. In the case of GUCCUCUUUCACGUGCGCGUGAAAGAGAGAAGUGAACCAGAGAAACACACGUUGUCGUAUAUUACCUGGAA [G56C U70A] it was 0.272; in that of GUCCUCUUUCACGUGCGCGUGAAAGAGAGAAGUGAACCAGAGAAACACACGUUGUCGUAUGUUACCUGGUA [G56C A61G], 0.155; in that of GUCCUCUUUCACGUGCGCGUGAAAGAGAGAAGUGAACCAGAGAAACACACGUUGUAGUAUAUUGCCUGGUA [G56A A64G], 0.12. In the case of GUCCUCUUUCACGUGCGCGUGAAAGAGAGAAGUGAACCAGAGAAACACACGUUGUAGUAUAUUCCCUGGUA [G56A A64C] it was 0.0783. In the case of GUCCUCUUUCACGUGCGCGUGAAAGAGAGAAGUGAACCAGAGAAACACACGUUGUAGUAUAUUUCCUGGUA [G56A A64U] it was 0.135; in that of GUCCUCUUUCACGUGCGCGUGAAAGAGAGAAGUGAACCAGAGAAACACACGUUGUAGUGUAUUACCUGGUA [G56A A59G], 0.167; in that of GUCCUCUUUCACGUGCGCGUGAAAGAGAGAAGUGAACCAGAGAAACACACGUUGUCAUAUAUUACCUGGUA [G56C G57A], 0.115. For the variant GUCCUCUUUCACGUGCGCGUGAAAGAGAGAAGUGAACCAGAGAAACACACGUUGUCGUAUAUUACCUGGUC [G56C A71C], the self-cleavage came out at 0.315. In the case of GUCCUCUUUCACGUGCGCGUGAAAGAGAGAAGUGAACCAGAGAAACACACGUUGUAGUAUAUUAGCUGGUA [G56A C65G], the self-cleavage came out at 0.214. Next, GUCCUCUUUCACGUGCGCGUGAAAGAGAGAAGUGAACCAGAGAAACACACGUUGUAGUAUAUUAACUGGUA [G56A C65A]: 0.097; GUCCUCUUUCACGUGCGCGUGAAAGAGAGAAGUGAACCAGAGAAACACACGUUGGGGUAUAUUACCUGGCA [U55G U70C]: 0.264.

Consider GUCCUCUUUCACGUGCGCGUGAAAGAGAGAAGUGAACCAGAGAAACACACGUUGUAGUAUAUUACCUGGUC [G56A A71C], for which the self-cleavage was 0.404. Next, GUCCUCUUUCACGUGCGCGUGAAAGAGAGAAGUGAACCAGAGAAACACACGUUGUCGUAGAUUACCUGGUA [G56C U60G]: 0.111; GUCCUCUUUCACGUGCGCGUGAAAGAGAGAAGUGAACCAGAGAAACACACGUUGUCGUAUAUUAACUGGUA [G56C C65A]: 0.274; GUCCUCUUUCACGUGCGCGUGAAAGAGAGAAGUGAACCAGAGAAACACACGUUGUCGUAUAUUACCCGGUA [G56C U67C]: 0.138. Regarding GUCCUCUUUCACGUGCGCGUGAAAGAGAGAAGUGAACCAGAGAAACACACGUUGUAGCAUAUUACCUGGUA [G56A U58C], the self-cleavage is 0.162.

For GUCCUCUUUCACGUGCGCGUGAAAGAGAGAAGUGAACCAGAGAAACACACGUUGUAGGAUAUUACCUGGUA [G56A U58G], the self-cleavage stood at 0.274. Next, GUCCUCUUUCACGUGCGCGUGAAAGAGAGAAGUGAACCAGAGAAACACACGUUGUAGAAUAUUACCUGGUA [G56A U58A]: 0.0823. Consider GUCCUCUUUCACGUGCGCGUGAAAGAGAGAAGUGAACCAGAGAAACACACGUUGUCGAAUAUUACCUGGUA [G56C U58A], for which the self-cleavage is 0.2. GUCCUCUUUCACGUGCGCGUGAAAGAGAGAAGUGAACCAGAGAAACACACGUUGUCGCAUAUUACCUGGUA [G56C U58C]: the self-cleavage was 0.246. In the case of GUCCUCUUUCACGUGCGCGUGAAAGAGAGAAGUGAACCAGAGAAACACACGUUGUCGUAUAUUACCUAGUA [G56C G68A] it was 0.153; in that of GUCCUCUUUCACGUGCGCGUGAAAGAGAGAAGUGAACCAGAGAAACACACGUUGUAGUAUAUUACCUGUUA [G56A G69U], 0.258; in that of GUCCUCUUUCACGUGCGCGUGAAAGAGAGAAGUGAACCAGAGAAACACACGUUGUCGUAUAUUACCUGAUA [G56C G69A], 0.135. For the variant GUCCUCUUUCACGUGCGCGUGAAAGAGAGAAGUGAACCAGAGAAACACACGUUGUAGUAUAUUACCGGGUA [G56A U67G], the self-cleavage worked out at 0.104. In the case of GUCCUCUUUCACGUGCGCGUGAAAGAGAGAAGUGAACCAGAGAAACACACGUUGUAGUAUAUUACCCGGUA [G56A U67C] it was 0.129; in that of GUCCUCUUUCACGUGCGCGUGAAAGAGAGAAGUGAACCAGAGAAACACACGUUGUCGUAUAUUUCCUGGUA [G56C A64U], 0.0562; in that of GUCCUCUUUCACGUGCGCGUGAAAGAGAGAAGUGAACCAGAGAAACACACGUUGGGGUAUAUUACCAGGUA [U55G U67A], 0.219. As for GUCCUCUUUCACGUGCGCGUGAAAGAGAGAAGUGAACCAGAGAAACACACGUUGUCGUUUAUUACCUGGUA [G56C A59U], the self-cleavage was 0.173. GUCCUCUUUCACGUGCGCGUGAAAGAGAGAAGUGAACCAGAGAAACACACGUUGUCGUAUAUUACGUGGUA [G56C C66G]: the self-cleavage amounted to 0.209. Next, GUCCUCUUUCACGUGCGCGUGAAAGAGAGAAGUGAACCAGAGAAACACACGUUGUCGUAUAUUACUUGGUA [G56C C66U]: 0.199. For GUCCUCUUUCACGUGCGCGUGAAAGAGAGAAGUGAACCAGAGAAACACACGUUGUCGUAUAUUACAUGGUA [G56C C66A], the self-cleavage is 0.156.

For the variant GUCCUCUUUCACGUGCGCGUGAAAGAGAGAAGUGAACCAGAGAAACACACGUUGUCGUAUACUACCUGGUA [G56C U62C], the self-cleavage turned out to be 0.244.
